A short description of this data set: soluble fraction after stress (log2 fold change); higher = more stays soluble; pooled small domains, quantitative proteomics. As to conditions: stress: pH 4. In outline:
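Values are log2 fold changes, and higher ones mean more of the domain stayed soluble. Each fold change reflects the soluble amount of a domain after acid stress and is taken as a measure of aggregation propensity. The stress was pH 4, applied to pooled custom libraries of small protein domains analysed by high-throughput quantitative proteomics.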
“HMLSSAAAIDRILAGGTAAMNHRQFDAALTSFNTVIEMRPDFAEGWNKRATLYYLIGEYERSIADVERTLA”: the “soluble fraction (log2)” value was 0.0555. In the case of “HMLSTRERMSSLMAQLQVQQFMPFHRLFTISEGRMGVIVTFLAMMELVKENLIKLIQAQEYGPIHVSLG” it was 0.22; in that of “HMLSVRERMSAILVSLEGERYADFTGLFDPTEGKGGVTVTFLAILELLKESMIDVVQNELYGPIHVRAA”, 0.122. Consider “HMLSVRNRMSDVLKSLDDGEFHRFESLFNLEEGRLGVVVTFLAMLELAKEMLVEIVQNESLGPIYLKSR”, for which the “soluble fraction (log2)” value came out at 0.144. Regarding “HMLSVRQRMGELLERLADGQFHRFESLFTVEEGKLGVVVTFLGLLTLAKEQLLDIVQEGPTAPIYVKSLA”, the “soluble fraction (log2)” value was determined as 0.0784.

Consider “HMLSVTLTVLPQQAGERLDAFAAAESTLSRSAAAKLIEDGQITVNGARAAKNYRLRAGDVIEIDEPEPI”, for which the “soluble fraction (log2)” value came to 0.194.

Turning to “HMLTAPMPGTIQQILVTKGQKVRSGQTLMILEAMKMEHKIKAPNSGEIISINYSLGNRVEMGANLIEI”, the “soluble fraction (log2)” value worked out at 0.0752. Turning to “HMLTDAAAVKRSVRNLVQYGFYEKPFHPEIGSGVRDLLFENMTPFVANNLSKQIEEIITNYEPRA”, the “soluble fraction (log2)” value is -0.126. As for “HMLTDMSKIRKVLKLYGKGNSKLFISTYLSLSRNTVKKYISLFEVSGKTIEEILAKSDSELELLFSG”, the “soluble fraction (log2)” value was -0.0775. As to “HMLTEREQDTLNFIRQYIDEQGRSPLVSEIAKGLGIKSQGTTHRYIQALVDAGLLERHVGRTRGLHLT”, the “soluble fraction (log2)” value was -0.352. In the case of “HMLTGADAEKATAAAQAEFPGGTVLRVETDADGTYEAHVRKADGTEVEVKMDKDFKVTSVEE” it was -0.0221. As for “HMLTLAVPNSINMRLDKYLSENIDYLSRSKIQGLINDGKVTINGENEKSSYKLNGDESIVIYYEE”, the “soluble fraction (log2)” value is -0.775. Turning to “HMLTPQEIGSRLKLVRQGLQLKQQEVAEIIGTSQLKISKIEQGATVTTPDFLKLLAFYSQSVSLDILF”, the “soluble fraction (log2)” value is -0.652. Regarding “HMLTRQRKQLLEYLSKHTDEQMTARQIADALTAESISISAVYRNLSALEEEGILKRSIRENTREVYYQYIA”, the “soluble fraction (log2)” value was -0.231.

Take “HMLTSIDQMLKLAMPDSDITVSKMNGLILLTGTVKAPEDAAEAERLVQAFSAPPPGQPPVTVVSRLRTA”: the “soluble fraction (log2)” value came out at 0.22. For the sequence “HMLTTMSSQWKPSLDAIEILEKSGIAYSFIEDAIPEFVLYWRERGISHGAWNTKFVEHIRKQWAKFEAS”, the “soluble fraction (log2)” value stood at 0.21.

Take “HMLTTVAAQRAALHQEEDITKLREIILKLVPFWGLDGGAYADKETSIQLERQYRESFDQAVSAARRSGQA”: the “soluble fraction (log2)” value is -0.234. “HMLTWNQLGLITKPVVFLDGTGYYARLFEAFEHMISTGFVKENYRAMMNRATSVEEAVRIASSPAPKVD”: the “soluble fraction (log2)” value is -0.187. Take “HMLVGGPDTPSKVTVSFDLGSRQAVDELTERAGAAGGRIGDIDDYPFMYQRQFDDPDGYHYSPFWMKP”: the “soluble fraction (log2)” value is -0.528. Turning to “HMLVTQSITVPMAMSGIRLDAALAMLFPDHSRNRLKAWLDDGHILVDGAVWAGKQRLEGNEEITATLPEAK”, the “soluble fraction (log2)” value is -0.189. In the case of “HMLYDNQLPDWAGQMVKNHGLTISPKALVILVDHIGNDLSRIENEIEKLMLNLGTRKSITEDDVEN”, the “soluble fraction (log2)” value was -1.34.

In the case of “HMLYETLKKGDQGTSVKTLQEKLKALGYLTGAADGKYGAGTETAVKSFQKAAGLTETGTADPETLSAVYAA”, the “soluble fraction (log2)” value is 0.0393. Under “HMLYITEIQKKIMDAFLVVANESNSGTRITMNEIANKVRMTPQAIYRKHFKSVIEISDTIRD” stands -1.17; under “HMMEERVIEFANVLRRNGVRVSLAENMDAFRALKSLGISDPLLFRHALRATLIKRGSDIQPFEELFDFFFL”, -1.08.

With “HMNAAFMKAERLLAILNILLTGKRVSSTELAKKLEVSVRTVYRDVEALSEAGFPVYATMGRDGGFGLIEGF”, the “soluble fraction (log2)” value is -1.58. Under “HMNADAIIGRMGKVTEPITPDGYGRVEIDGDSWKATAVGGVAIAEGTRVSVVSLDSIIITVKTV” stands -0.117. With “HMNADAIVGRTGVVTEAIAADGFGRVQIDGDSWKAKASGNNGIDVGAKVRVLRIDSIILTVEK”, the “soluble fraction (log2)” value is 0.059. For “HMNAELSTVQAAEVLNVSRPFLIKLLEDGAIPHRKVGKHRRVRMEDVMSYKAAIDTEREAVLDQLAA”, the “soluble fraction (log2)” value was -0.722. Consider “HMNAISIDEAKKIALAKVSGASDQHIRIEADHDDGRLVYEGEIHYGRVEYEFEIDGSTGAIIEWDADRK”, for which the “soluble fraction (log2)” value is -0.0156. For the sequence “HMNAKKSTLQLDLLKQLLEGNKISLKDFSLSNEISIRTAQRYIEDLLEIFEKNIVKEGDFYSFIS”, the “soluble fraction (log2)” value was -1.34.

As to “HMNAKNPRALAIQYVFKMQMGNFLHAKTDNQQQEQERIMTLFNEENKNTILPRWGKELLSYINRN”, the “soluble fraction (log2)” value is -0.208. Regarding “HMNDENIIIEEIKYFIKSNQIKEQEKLPSERNLSELFTVSRFSLRKALRHLVDTGYLYVKDKSGYYYQGD”, the “soluble fraction (log2)” value came to 0.00355. Under “HMNDLIKMPYLVGQLYDDVASNQEYADFQFKITEGNDPDKQPGEIMKQDPAADIMVKKNAEVELLVNG” stands 0.193. “HMNDLKEDTITVQSVEYIDSDDGTMVYIKDTNHQVYKQAFKEDESLIRISAGDVLHVKYQPMDNEIHLL”: the “soluble fraction (log2)” value is -2.07.

As for “HMNDMPELLSIKEASQWATEYLNKNVTTSNIAYLIQYGRIRKIGNNGSTQVLKDDLVKYYKDQK”, the “soluble fraction (log2)” value is -0.0394. In the case of “HMNDMWADITINANGKATLVVHTHEIKYLGLTGHLGKMEINGTAKEPVKDSSGDVVDYYFTFTDLDASMF” it was -0.623; in that of “HMNDNFTPDDLNRLARIKDLPQAKKYALELISNKSAKPMKPEKVRWFANQLQKKKSVMDITKMMYDLLLA”, 0.198; in that of “HMNDNTAINEFKKMVFTRMVHLQIDNAELSKLSGVTNSKILALKYGNSNTLKLGDIVKVAKTLNINLNDL”, 0.094. “HMNDPFVILGVSKDASQSEILEAYKQKRAYYQERVFDEGDEGAQAARMLTQLDDAYQQAMELSHES”: the “soluble fraction (log2)” value turned out to be 0.17. As to “HMNDPIESLTPREREVLTLMAEGRTNAAIAAQLVVTEGAVEKHTQHIFAKLGLLPDSAVHRRVKAVLALLS”, the “soluble fraction (log2)” value is -0.637. With “HMNDPNAPITENQLKAIHVLLDKLKVDDNLKHAYIADVLQLDNEPETLKTLTKAQGSMAIERMQLLKDN”, the “soluble fraction (log2)” value was -0.42. As for “HMNDQLIYSDFIRQVQDGQITEVTISGLNIAGTRSDGSVFNTLRPYIEDPKLIDDLLSHNVRIQGAE”, the “soluble fraction (log2)” value was -0.632. Consider “HMNDRERIGKRIAQLRMEAGISQYKLAELTGLAPGNIARIETGKYSTGIDILSKIGDALGYQLDFI”, for which the “soluble fraction (log2)” value is -0.414.

As to “HMNDRLAGMEGQRGEAATNFDQGEGKVKVGDTVWLAKQSDSTVIVEGDQIVVTGSENGLLKVRL”, the “soluble fraction (log2)” value is -0.453.

With “HMNDTLGVNIKRLRKEKGMTQDEVAKAVYTTRYNILRYESGKMTPSSEVIERLEKALGVPTGSLAQ”, the “soluble fraction (log2)” value is -0.0881. “HMNDTSLIIDNLMLKLGNNIKNFSEIYSLLRKNLAEYGEEFIKSKVDYVLKNFNDNIEENLKKLLTE”: the “soluble fraction (log2)” value is -0.601. Take “HMNDVGKVLNQLGERDRMILLLTYWDELPLKEAARILEVSENNAKIILFRARSRFASLWSAGS”: the “soluble fraction (log2)” value was -0.794. As for “HMNEAVVVPDVKGLTLDEADEFFKNSKLRYNVVDSVFSKDVAPGAIVELVPVAGSKVKENRIVFVTINAQ”, the “soluble fraction (log2)” value is -0.517. In the case of “HMNEDTEDIKNINSLVNKLTENNFDIIRDSIVKLINKEHLIPYIIETIIEKSILHHRYVHLYVSILKE”, the “soluble fraction (log2)” value was -0.119. Regarding “HMNEDYSSMVGKTGFALTILRPAGKIMIEEEVFDAVAINGYISKGQEVEVVRYENAQLYVKVK”, the “soluble fraction (log2)” value is -0.228.

For the origin of these results see the domain aggregation screens of Martell et al. (2025).
